Data taken from the supplement of paper PMC11246515.
± gives the standard deviation of the averaged measurements.

Assay: total protein half-life in vivo (active degradation + dilution); higher = more stable protein
[1] = wild type E. coli NCM3722, growth: N-lim chemostat, doubling time 12 h
[2] = wild type E. coli NCM3722, growth: P-lim chemostat, doubling time 12 h
[3] = wild type E. coli NCM3722, growth: N-lim chemostat, doubling time 6 h
[4] = E. coli NCM3722 delta-clpP delta-lon delta-hslV, growth: N-lim chemostat, doubling time 6 h
[5] = E. coli NCM3722 delta-clpP, growth: N-lim chemostat, doubling time 6 h
[6] = E. coli NCM3722 delta-hslV, growth: N-lim chemostat, doubling time 6 h
[7] = E. coli NCM3722 delta-lon, growth: N-lim chemostat, doubling time 6 h
[8] = E. coli NCM3722 delta-smpB, growth: N-lim chemostat, doubling time 6 h
[9] = wild type E. coli NCM3722, growth: C-lim chemostat, doubling time 3 h
[10] = wild type E. coli NCM3722, growth: C-lim chemostat, doubling time 6 h
[11] = wild type E. coli NCM3722, growth: C-lim chemostat, doubling time 12 h
[12] = wild type E. coli NCM3722, growth: P-lim chemostat, doubling time 6 h

| Sequence | total protein half-life in vivo [1] [h] | total protein half-life in vivo [2] [h] | total protein half-life in vivo [3] [h] | total protein half-life in vivo [4] [h] | total protein half-life in vivo [5] [h] | total protein half-life in vivo [6] [h] | total protein half-life in vivo [7] [h] | total protein half-life in vivo [8] [h] | total protein half-life in vivo [9] [h] | total protein half-life in vivo [10] [h] | total protein half-life in vivo [11] [h] | total protein half-life in vivo [12] [h] |
| --- | --- | --- | --- | --- | --- | --- | --- | --- | --- | --- | --- | --- |
| MMEQSLIPQTPVLPLTAQRTVKRALTLLDRHLRETGVAFTSTQAARDWLKLKMAGLEREEFMMLYLNQQNQLIAHETLFAGSISSTEVHPREVVKRALYFNAAAVILAHNHPSGDTTPSQADKTITQRLVQALQLVDIRVPDHLIVGGRQIYSFAEHGLL | 8.33 | 10.4 | – | – | – | – | – | – | – | – | – | – |
| MAFVSEREIVRKIFSKKIDFTILAFFYISSIFFLLCSGVLFQYFTAAFTKGNCYECSMKLDYIKQFYFSLETAWYLISAVAVFIASVFIQHRIKAYLTLLAITWIVLTITDVALIHALDNIAMNNILLNILYNLFGAILLSLFMCLSNSLLFHLNKIKHIPMILSAMIPLVSAIIIAILITAVIYLLFARQAVEIEMDISEGSDIAYVGVKDNEESFGFLNDKKTDTPTYLDVIKNGSLIYNDTQGLSGADIYIVSGCYALPDLLRNVPLDAKKSFLNVKKLEITQKLPMMGFIQGESADVMPKAASRLSLSKQDDKFMLASSVTDSQIKFKSNNAQLMVAFAFMPITTNGILHDYTYDIIINDKKYKIENHVAPLSRLDKNKKMKCEYQQISDLTNTYNINANYLTGFLLVLKPDDIINYNNSPSVLLKTDFAFYKKTYQKLDKIYDDISNGKLSSLRATGISQFSINGKHLSLRPESEIIISEGSLYGLVNKSKKIKIYGTADLVFVDNKIMNLRKITYLQSKLEIFGSSIMDILKYIFGLGLLAISIKFIHSYFKNDVNENLFL | – | 2.3 ± 0.71 | 2.06 | – | – | – | – | – | – | – | – | – |
| MSKLDLNALNELPKVDRILALAETNAELEKLDAEGRVAWALDNLPGEYVLSSSFGIQAAVSLHLVNQIRPDIPVILTDTGYLFPETYRFIDELTDKLKLNLKVYRATESAAWQEARYGKLWEQGVEGIEKYNDINKVEPMNRALKELNAQTWFAGLRREQSGSRANLPVLAIQRGVFKVLPIIDWDNRTIYQYLQKHGLKYHPLWDEGYLSVGDTHTTRKWEPGMAEEETRFFGLKRECGLHEG | 1.721 ± 0.012 | 6.15 ± 0.27 | 1.47 ± 0.077 | 4.38 ± 0.8 | 4.21 ± 0.56 | 1.29 ± 0.27 | 1.64 ± 0.023 | 1.37 ± 0.087 | 2.11 ± 0.095 | 2.91 ± 0.58 | 4.05 ± 0.29 | 3.28 ± 0.37 |
| MTDLIQRPRRLRKSPALRAMFEETTLSLNDLVLPIFVEEEIDDYKAVEAMPGVMRIPEKHLAREIERIANAGIRSVMTFGISHHTDETGSDAWREDGLVARMSRICKQTVPEMIVMSDTCFCEYTSHGHCGVLCEHGVDNDATLENLGKQAVVAAAAGADFIAPSAAMDGQVQAIRQALDAAGFKDTAIMSYSTKFASSFYGPFREAAGSALKGDRKSYQMNPMNRREAIRESLLDEAQGADCLMVKPAGAYLDIVRELRERTELPIGAYQVSGEYAMIKFAALAGAIDEEKVVLESLGSIKRAGADLIFSYFALDLAEKKILR [P0ACB2] | 8.03 ± 0.4 | 11.9 ± 0.21 | 5.01 ± 0.34 | 5.37 ± 0.27 | 5.78 ± 1.1 | 4.92 ± 0.25 | 5.46 ± 0.23 | 4.71 ± 0.18 | 2.99 ± 0.082 | 5.43 ± 0.14 | 9.8 ± 1.4 | 5.96 ± 0.23 |
| MQNSALKAWLDSSYLSGANQSWIEQLYEDFLTDPDSVDANWRSTFQQLPGTGVKPDQFHSQTREYFRRLAKDASRYSSTISDPDTNVKQVKVLQLINAYRFRGHQHANLDPLGLWQQDKVADLDPSFHDLTEADFQETFNVGSFASGKETMKLGELLEALKQTYCGPIGAEYMHITSTEEKRWIQQRIESGRATFNSEEKKRFLSELTAAEGLERYLGAKFPGAKRFSLEGGDALIPMLKEMIRHAGNSGTREVVLGMAHRGRLNVLVNVLGKKPQDLFDEFAGKHKEHLGTGDVKYHMGFSSDFQTDGGLVHLALAFNPSHLEIVSPVVIGSVRARLDRLDEPSSNKVLPITIHGDAAVTGQGVVQETLNMSKARGYEVGGTVRIVINNQVGFTTSNPLDARSTPYCTDIGKMVQAPIFHVNADDPEAVAFVTRLALDFRNTFKRDVFIDLVCYRRHGHNEADEPSATQPLMYQKIKKHPTPRKIYADKLEQEKVATLEDATEMVNLYRDALDAGDCVVAEWRPMNMHSFTWSPYLNHEWDEEYPNKVEMKRLQELAKRISTVPEAVEMQSRVAKIYGDRQAMAAGEKLFDWGGAENLAYATLVDEGIPVRLSGEDSGRGTFFHRHAVIHNQSNGSTYTPLQHIHNGQGAFRVWDSVLSEEAVLAFEYGYATAEPRTLTIWEAQFGDFANGAQVVIDQFISSGEQKWGRMCGLVMLLPHGYEGQGPEHSSARLERYLQLCAEQNMQVCVPSTPAQVYHMLRRQALRGMRRPLVVMSPKSLLRHPLAVSSLEELANGTFLPAIGEIDELDPKGVKRVVMCSGKVYYDLLEQRRKNNQHDVAIVRIEQLYPFPHKAMQEVLQQFAHVKDFVWCQEEPLNQGAWYCSQHHFREVIPFGASLRYAGRPASASPAVGYMSVHQKQQQDLVNDALNVE [P0AFG3] | 10.1 ± 0.89 | 9.32 ± 0.68 | 5.377 ± 0.027 | 5.96 ± 0.15 | 6.43 ± 0.87 | 5.92 ± 0.14 | 5.36 ± 0.23 | 4.99 ± 0.18 | 2.51 ± 0.028 | 5.13 ± 0.19 | 8.677 ± 0.03 | 4.72 ± 0.17 |
| MALIVEFICELPNGVHARPASHVETLCNTFSSQIEWHNLRTDRKGNAKSALALIGTDTLAGDNCQLLISGADEQEAHQRLSQWLRDEFPHCDAPLAEVKSDELEPLPVSLTNLNPQIIRARTVCSGSAGGILTPISSLDLNALGNLPAAKGVDAEQSALENGLTLVLKNIEFRLLDSDGATSAILEAHRSLAGDTSLREHLLAGVSAGLSCAEAIVASANHFCEEFSRSSSSYLQERALDVRDVCFQLLQQIYGEQRFPAPGKLTQPAICMADELTPSQFLELDKNHLKGLLLKSGGTTSHTVILARSFNIPTLVGVDIDALTPWQQQTIYIDGNAGAIVVEPGEAVARYYQQEARVQDALREQQRVWLTQQARTADGIRIEIAANIAHSVEAQAAFGNGAEGVGLFRTEMLYMDRTSAPGESELYNIFCQALESANGRSIIVRTMDIGGDKPVDYLNIPAEANPFLGYRAVRIYEEYASLFTTQLRSILRASAHGSLKIMIPMISSMEEILWVKEKLAEAKQQLRNEHIPFDEKIQLGIMLEVPSVMFIIDQCCEEIDFFSIGSNDLTQYLLAVDRDNAKVTRHYNSLNPAFLRALDYAVQAVHRQGKWIGLCGELGAKGSVLPLLVGLGLDELSMSAPSIPAAKARMAQLDSRECRKLLNQAMACRTSLEVEHLLAQFRMTQQDAPLVTAECITLESDWRSKEEVLKGMTDNLLLAGRCRYPRKLEADLWAREAVFSTGLGFSFAIPHSKSEHIEQSTISVARLQAPVRWGDDEAQFIIMLTLNKHAAGDQHMRIFSRLARRIMHEEFRNALVNAASADAIASLLQHELEL | – | – | – | – | – | – | – | – | 2.7 | – | 7.46 | – |
| MTTKRKPYVRPMTSTWWKKLPFYRFYMLREGTAVPAVWFSIELIFGLFALKNGPEAWAGFVDFLQNPVIVIINLITLAAALLHTKTWFELAPKAANIIVKDEKMGPEPIIKSLWAVTVVATIVILFVALYW [P0A8Q0] | 11.3 ± 1.9 | 12.5 ± 0.33 | 5.63 ± 0.14 | 5.7 ± 0.4 | – | 5.78 ± 0.49 | 6.06 ± 0.09 | 6.13 ± 0.39 | 2.81 ± 0.031 | 5.55 ± 0.079 | 10.9 ± 0.46 | 5.09 ± 0.12 |
